Paper PMC12017984
pKd: −log10 of the molar value. Blank lines part the entries; values can stand above or below the substance they belong to.

Legend:
[1] = target: Recombinant His-tagged human apolipoprotein A-IV, apoA-IV^T347S (human) (UniProt P06727); test: BLI
[2] = target: Recombinant human apolipoprotein A-IV, apoA-IV^T347S, His tag-free (human) (UniProt P06727); test: ITC
[3] = target: Recombinant human apolipoprotein A-IV, apoA-IV^WT, His tag-free (human) (UniProt P06727); test: ITC

pKd [1]: 6.40
Substance: Human platelet integrin αIIbβ3 (from UniProt P05106 27-788) (receptor)

pKd [2]: 3.99
dH [2]: -34 kcal/mol
Substance: Recombinant human apolipoprotein A-IV, apoA-IV^T347S, His tag-free (from UniProt P06727 21-396) (natural protein)

Kd1 [3]: 0.63 µM
Kd2 [3]: 54 nM
dH1 [3]: 2.7 kcal/mol
dH2 [3]: -27 kcal/mol
Substance: Recombinant human apolipoprotein A-IV, apoA-IV^WT, His tag-free (from UniProt P06727 21-396) (natural protein)
